Data taken from patent US20250368745A1 (published 2025).
Where a chain is given by its changes, count along the chain named.

T1: human IL-18BP (human, UniProt O95998 31-194)
T1 construct: UniProt printed as 095998; also called hIL-18BP
T1 sequence: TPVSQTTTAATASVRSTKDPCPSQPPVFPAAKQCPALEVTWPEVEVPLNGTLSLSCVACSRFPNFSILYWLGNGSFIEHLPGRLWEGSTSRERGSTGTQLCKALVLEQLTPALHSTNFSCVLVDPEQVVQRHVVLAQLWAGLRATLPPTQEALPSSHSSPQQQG

T2: cynomolgus IL-18BP (cynomolgus monkey)
T2 construct: also called cyno IL-18BP; cyIL-18BP
T2 chain: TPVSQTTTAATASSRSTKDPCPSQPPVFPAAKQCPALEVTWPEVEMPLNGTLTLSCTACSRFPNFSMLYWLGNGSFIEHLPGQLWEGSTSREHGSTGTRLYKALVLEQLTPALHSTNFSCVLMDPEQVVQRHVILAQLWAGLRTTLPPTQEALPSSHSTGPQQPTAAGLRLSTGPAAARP

T3: human IL-18BP (interleukin-18 binding protein, isoform A) (human, UniProt O95998 31-194)
T3 sequence: T1 sequence

B1: SA301a HC-V100aG (antibody, name in Kabat numbering, V domains shown)
VH: QVQLQESGPGLVKPSQTLSLTCTVSGYSITSDYNSHWIRQPPGKGLEWIGYIHYSGSTNYNPSLKSRVTISRDTSKNQFSLKLSSVTAADTAVYYCARNYGSIYGNYFDYWGQGTLVTVSS
VL: EIVLTQSPATLSLSPGERATLSCSASSSVSYMYWYQQKPGQAPRPLIYRTSNLASGIPARFSGSGSGTDFTLTISSLEPEDFAVYYCQQYHSYPTFGGGTKVEIK
notes: IgG1 kappa
B2: SA301a HC-I99N (antibody, name in Kabat numbering, V domains shown)
VH: B1 VH with I103N, G105V
VL: B1 VL
notes: IgG1 kappa
B3: SA301a HC-N100bV (antibody, name in Kabat numbering, V domains shown)
VH: B1 VH with G105V, N106V
VL: B1 VL
notes: IgG1 kappa
B4: SA301a HC-I99G (antibody, name in Kabat numbering, V domains shown)
VH: B1 VH with I103G, G105V
VL: B1 VL
notes: IgG1 kappa
B5: SA301a HC-V100aI (antibody, name in Kabat numbering, V domains shown)
VH: B1 VH with G105I
VL: B1 VL
notes: IgG1 kappa
B6: SA301a HC-V100aT (antibody, name in Kabat numbering, V domains shown)
VH: B1 VH with G105T
VL: B1 VL
notes: IgG1 kappa
B7: SA301a HC-I99R (antibody, name in Kabat numbering, V domains shown)
VH: B1 VH with I103R, G105V
VL: B1 VL
notes: IgG1 kappa
B8: SA301a HC-I99S (antibody, name in Kabat numbering, V domains shown)
VH: B1 VH with I103S, G105V
VL: B1 VL
notes: IgG1 kappa
B9: SA301a HC-I99H (antibody, name in Kabat numbering, V domains shown)
VH: B1 VH with I103H, G105V
VL: B1 VL
notes: IgG1 kappa
B10: SA301a HC-V100aD (antibody, name in Kabat numbering, V domains shown)
VH: B1 VH with G105D
VL: B1 VL
notes: IgG1 kappa
B11: SA301a HC-N100bD (antibody, name in Kabat numbering, V domains shown)
VH: B1 VH with G105V, N106D
VL: B1 VL
notes: IgG1 kappa
B12: SA301a HC-V100aL (antibody, name in Kabat numbering, V domains shown)
VH: B1 VH with G105L
VL: B1 VL
notes: IgG1 kappa
B13: SA301a HC-I99L (antibody, name in Kabat numbering, V domains shown)
VH: B1 VH with I103L, G105V
VL: B1 VL
notes: IgG1 kappa
B14: SA301a HC-I99Q (antibody, name in Kabat numbering, V domains shown)
VH: B1 VH with I103Q, G105V
VL: B1 VL
notes: IgG1 kappa
B15: SA301a HC-V100aS (antibody, name in Kabat numbering, V domains shown)
VH: B1 VH with G105S
VL: B1 VL
notes: IgG1 kappa
B16: SA301a HC-N100bR (antibody, name in Kabat numbering, V domains shown)
VH: B1 VH with G105V, N106R
VL: B1 VL
notes: IgG1 kappa
B17: SA301a HC-I99E (antibody, name in Kabat numbering, V domains shown)
VH: B1 VH with I103E, G105V
VL: B1 VL
notes: IgG1 kappa
B18: SA301a HC-N100bE (antibody, name in Kabat numbering, V domains shown)
VH: B1 VH with G105V, N106E
VL: B1 VL
notes: IgG1 kappa
B19: SA301a HC-V100aM (antibody, name in Kabat numbering, V domains shown)
VH: B1 VH with G105M
VL: B1 VL
notes: IgG1 kappa
B20: SA301a HC-I99V (antibody, name in Kabat numbering, V domains shown)
VH: B1 VH with I103V, G105V
VL: B1 VL
notes: IgG1 kappa
B21: SA301a HC-I99D (antibody, name in Kabat numbering, V domains shown)
VH: B1 VH with I103D, G105V
VL: B1 VL
notes: IgG1 kappa
B22: SA301a HC-I99A (antibody, name in Kabat numbering, V domains shown)
VH: B1 VH with I103A, G105V
VL: B1 VL
notes: IgG1 kappa
B23: SA301a HC-I99M (antibody, name in Kabat numbering, V domains shown)
VH: B1 VH with I103M, G105V
VL: B1 VL
notes: IgG1 kappa
B24: SA301a HC-N100bH (antibody, name in Kabat numbering, V domains shown)
VH: B1 VH with G105V, N106H
VL: B1 VL
notes: IgG1 kappa
B25: SA301a HC-N100bS (antibody, name in Kabat numbering, V domains shown)
VH: B1 VH with G105V, N106S
VL: B1 VL
notes: IgG1 kappa
B26: SA301a HC-I99Y (antibody, name in Kabat numbering, V domains shown)
VH: B1 VH with I103Y, G105V
VL: B1 VL
notes: IgG1 kappa
B27: SA301a HC-V100aA (antibody, name in Kabat numbering, V domains shown)
VH: B1 VH with G105A
VL: B1 VL
notes: IgG1 kappa
B28: SA301a HC-V100aP (antibody, name in Kabat numbering, V domains shown)
VH: B1 VH with G105P
VL: B1 VL
notes: IgG1 kappa
B29: SA301a HC-I99P (antibody, name in Kabat numbering, V domains shown)
VH: B1 VH with I103P, G105V
VL: B1 VL
notes: IgG1 kappa
B30: SA301a HC-V100aE (antibody, name in Kabat numbering, V domains shown)
VH: B1 VH with G105E
VL: B1 VL
notes: IgG1 kappa
B31: SA301a HC-I99F (antibody, name in Kabat numbering, V domains shown)
VH: B1 VH with I103F, G105V
VL: B1 VL
notes: IgG1 kappa
B32: SA301a HC-V100aH (antibody, name in Kabat numbering, V domains shown)
VH: B1 VH with G105H
VL: B1 VL
notes: IgG1 kappa
B33: SA301a HC-V100aN (antibody, name in Kabat numbering, V domains shown)
VH: B1 VH with G105N
VL: B1 VL
notes: IgG1 kappa
B34: SA301a HC-N100bM (antibody, name in Kabat numbering, V domains shown)
VH: B1 VH with G105V, N106M
VL: B1 VL
notes: IgG1 kappa
B35: SA301a HC-N100bY (antibody, name in Kabat numbering, V domains shown)
VH: B1 VH with G105V, N106Y
VL: B1 VL
notes: IgG1 kappa
B36: SA301a HC-N100bQ (antibody, name in Kabat numbering, V domains shown)
VH: B1 VH with G105V, N106Q
VL: B1 VL
notes: IgG1 kappa
B37: SA301a HC-V100aF (antibody, name in Kabat numbering, V domains shown)
VH: B1 VH with G105F
VL: B1 VL
notes: IgG1 kappa
B38: SA301a HC-N100bP (antibody, name in Kabat numbering, V domains shown)
VH: B1 VH with G105V, N106P
VL: B1 VL
notes: IgG1 kappa
B39: SA306a (antibody, human IgG1, V domains shown)
VH: B1 VH with S35N, G105V
VL: B1 VL
B40: SA308a (antibody, human IgG1, V domains shown)
VH: B1 VH with S35A, S57A, G105V
VL: B1 VL

Target: T1, human IL-18BP
Assay: BLI, apparent KD

Row | Binder | Kd [nM]
1 | B1 | 0.55
2 | B2 | 0.55
3 | B3 | 2.16
4 | B4 | 1.04
5 | B5 | 0.09
6 | B6 | 0.27
7 | B7 | 0.46
8 | B8 | 0.56
9 | B9 | 0.61
10 | B10 | 4.99
11 | B11 | 2.3
12 | B12 | 2.54
13 | B13 | 0.49
14 | B14 | 0.25
15 | B15 | 0.28
16 | B16 | 0.25
17 | B17 | 1.95

Row | Binder | Kd [nM]
18 | B18 | 0.31
19 | B19 | 0.8
20 | B20 | 0.05
21 | B21 | 1.01
22 | B22 | 0.51
23 | B23 | 0.21
24 | B24 | 0.69
25 | B25 | 0.49
26 | B26 | 0.48
27 | B27 | 0.47
28 | B28 | 0.49
29 | B29 | 0.41
30 | B30 | 0.51
31 | B31 | 0.64
32 | B32 | 0.41
33 | B33 | 0.68

Target: T2, cynomolgus IL-18BP
Assay: BLI, apparent KD

Row | Binder | Kd [nM]
34 | B1 | 0.92
35 | B2 | 0.66
36 | B3 | 1.16
37 | B34 | 1.83
38 | B4 | 0.67
39 | B5 | 0.25
40 | B6 | 0.06
41 | B7 | 0.69
42 | B8 | 0.53
43 | B9 | 0.83
44 | B35 | 0.47
45 | B10 | 0.36
46 | B11 | 0.96
47 | B12 | 0.81
48 | B13 | 0.89
49 | B14 | 0.44
50 | B15 | 0.53
51 | B17 | 3.98
52 | B36 | 0.42

Row | Binder | Kd [nM]
53 | B18 | 0.91
54 | B19 | 0.22
55 | B20 | 0.33
56 | B21 | 1.07
57 | B37 | 0.44
58 | B22 | 0.61
59 | B23 | 0.37
60 | B24 | 1.03
61 | B25 | 0.09
62 | B26 | 0.45
63 | B27 | 0.15
64 | B38 | 0.11
65 | B28 | 0.15
66 | B29 | 0.51
67 | B30 | 0.22
68 | B31 | 0.97
69 | B32 | 0.06
70 | B33 | 0.11

Target: T3, human IL-18BP (interleukin-18 binding …)
Assay: cell-based or functional assay

Row | Binder | EC50 in PBMC Assay 1 (endogenous IL-18BP), IFNγ [nM] | EC50 in PBMC Assay 2 (precomplexed IL-18BP), IFNγ [nM]
71 | B39 | 127 | 19.7
72 | B40 | 7.9 | 2.2
